This is an account of results in the supplement of paper PMC10567573.

This series in a line: protein stability index of a GFP-peptide fusion (GPS, HEK-293T) (PSI 1-6); higher = more stable. Conditions: c terminus: a fixed tail appended.

± gives the standard deviation.
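Note: 24-mer peptide tiles fused after GFP, lentivirally expressed, FACS-sorted into six equal bins by GFP/DsRed ratio, decoded by Illumina sequencing, PSI is the read-weighted mean bin number.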

As for PEGQELQKLGSGAWDNPAYSGPPS [PKD2L1], the protein stability index was 4.53 ± 0.35 (treatment: DMSO) and 4.93 ± 0.36 (treatment: MLN4924 1 uM, 8 h).
Turning to RDNDHPDHSSRELSKILAKLERLK [FUT8], the protein stability index is, setting by setting: (treatment: DMSO) 2.39 ± 0.25; (treatment: MLN4924 1 uM, 8 h) 2.27 ± 0.24.
With YQTEQSLRQLVESDINSLRRILDE [KRT33B], the protein stability index is 3.44 ± 0.16 (treatment: DMSO) and 3.61 ± 0.3 (treatment: MLN4924 1 uM, 8 h).
As to GAYGNLKRLYDKAAKMYHQLKKCE [SMG5], the protein stability index runs as follows: (treatment: DMSO) 2.45 ± 1; (treatment: MLN4924 1 uM, 8 h) 2.325 ± 0.014.
With LEGWRPDQLYRRKKDNHALVRETD [ELOA2], the protein stability index worked out at 4.45 ± 0.16 (treatment: DMSO) and 4.57 ± 0.12 (treatment: MLN4924 1 uM, 8 h).
In the case of VGTESQGRDWRHLPTITSELSGAP [PXN], the protein stability index reads like this: (treatment: DMSO) 4.21 ± 0.23; (treatment: MLN4924 1 uM, 8 h) 4.21 ± 0.2.
Where the note is “treatment: DMSO”, KKEDCLKLLLFLSTELQASQILQN [FAM98B] returned a protein stability index of 3.41 ± 1.1.
Regarding GRCIHAGCDRIIGSKKKFDKCMVC [ADAMTS4], the protein stability index was determined as 3.66 ± 0.41 (treatment: DMSO) and 3.56 ± 0.15 (treatment: MLN4924 1 uM, 8 h).
In the case of AFACQVAGCCQVFDALDDYEHHYH [ZNF511], the protein stability index (treatment: DMSO) is 2.97 ± 0.45 and the protein stability index (treatment: MLN4924 1 uM, 8 h) was found to be 2.74 ± 0.5.
The sequence QYAIISEAWRLVEEGIVSPSDLDL [CRYL1] yielded a protein stability index (treatment: DMSO) of 3.16 ± 0.19 and a protein stability index (treatment: MLN4924 1 uM, 8 h) of 3.21 ± 0.34.
With TLPPASRFIIIFEQIRFVMKAHSF [SOAT1], the protein stability index by setting is: (treatment: DMSO) 2.31 ± 0.48; (treatment: MLN4924 1 uM, 8 h) 2.57 ± 0.74.
As to GEEALSLQALDPQQCVDKESSLGS [SLC22A15], the protein stability index was determined as 5.36 ± 0.33 (treatment: DMSO) and 5.36 ± 0.32 (treatment: MLN4924 1 uM, 8 h).
For the sequence NWFNVTGSDKCVFLKNTEVSSMEC [CD69], the protein stability index was found to be 2.82 ± 0.25 (treatment: DMSO) and 2.94 ± 0.26 (treatment: MLN4924 1 uM, 8 h).
As for LGPPLVRKRIHDSRVAGFNPALQL [TOR1AIP2], the protein stability index (treatment: DMSO) turned out to be 3.07 ± 0.28 and the protein stability index (treatment: MLN4924 1 uM, 8 h) was 3.03 ± 0.26.
For the sequence PVCPTVCPPGGIHQVTVNESLLAP [KRT71], the protein stability index runs as follows: (treatment: DMSO) 4.36 ± 0.082; (treatment: MLN4924 1 uM, 8 h) 4.16 ± 0.21.
As to KYPGPQAEGDSEGLSQGLVDREKG [CHGA], the protein stability index worked out at 5.32 ± 0.3 (treatment: DMSO) and 5.36 ± 0.12 (treatment: MLN4924 1 uM, 8 h).
As to PDEANVGKHPKDKTEDENKQSFLD [TOR1AIP2], the protein stability index was 5.42 ± 0.21 (treatment: DMSO) and 5.75 ± 0.2 (treatment: MLN4924 1 uM, 8 h).
Taken in the same sequence, the figures for ALEALEPFWEVLVRSTETVERDNM [HDAC6] were 2.95 ± 0.23 and 3.12 ± 0.45.
For the sequence LRYSVVEESEPGTLVGNVAQDLGL [PCDHGC5], the protein stability index was 3.94 ± 0.13 (treatment: DMSO) and 3.86 ± 0.26 (treatment: MLN4924 1 uM, 8 h).
Consider ESDSRKVAEETPDGAPALCPSPEA [PRKX], for which the protein stability index came out at 5.69 ± 0.17 (treatment: DMSO) and 5.58 ± 0.3 (treatment: MLN4924 1 uM, 8 h).
As for VQIYNLSQNIQEDDLQQLQLFTEY [ATL3], the protein stability index worked out at 2.44 ± 0.35 (treatment: DMSO) and 2.28 ± 0.27 (treatment: MLN4924 1 uM, 8 h).
As for TPLEPDAKDLPCDSKPESALGAPS [TBX5], the protein stability index by setting is: (treatment: DMSO) 5.41 ± 0.29; (treatment: MLN4924 1 uM, 8 h) 5.36 ± 0.23.
LLLCGTISLRVYRKVLQAVHRGDG [RTN2]: the protein stability index by setting is: (treatment: DMSO) 2.66 ± 0.37; (treatment: MLN4924 1 uM, 8 h) 2.36 ± 0.63.
Taken in the same sequence, the figures for GPRPPAGELGSIGDHERAIDFSPY [CEBPB] were 4.15 ± 0.25 and 4.28 ± 0.21.
Regarding WLSTAPTEPLTHWYQVRCLFQSPL [CARM1], the protein stability index amounted to 2.44 ± 1 (treatment: DMSO) and 2.19 ± 0.4 (treatment: MLN4924 1 uM, 8 h).
Take AGFQDIPKRCLKAREHFGTVKTHL [TSN]: the protein stability index stood at 2.81 ± 0.44 (treatment: DMSO) and 2.78 ± 0.24 (treatment: MLN4924 1 uM, 8 h).
Taken in the same sequence, the figures for AHTATASAVEGAPPARPRPRSPEC [IRX6] were 5.37 ± 0.13 and 5.19 ± 0.28.
Take ILGGSGPVRKLYDDCSSTIVEDPQ [ESRRG]: the protein stability index came to 4.37 ± 0.3 (treatment: DMSO) and 4.41 ± 0.3 (treatment: MLN4924 1 uM, 8 h).
As to KIFNDFKDRMKSDHKRETERVVRE [ZMYND11], the protein stability index is, setting by setting: (treatment: DMSO) 4.12 ± 0.35; (treatment: MLN4924 1 uM, 8 h) 4.13 ± 0.081.
Taken in the same sequence, the figures for VEFVRHGDIIRLEHKETSRNLHSH [POMT2] were 3.02 ± 0.27 and 3.04 ± 0.25.
In the case of DAWKRPDALPGQSKRLAVPCKLEK [TLE6], the protein stability index (treatment: DMSO) was 4.2 ± 0.17 and the protein stability index (treatment: MLN4924 1 uM, 8 h) came to 4.28 ± 0.2.
VHEFCAGRECQPRWETSSWSECSR [ADAMTSL2]: the protein stability index by setting is: (treatment: DMSO) 2.42 ± 0.28; (treatment: MLN4924 1 uM, 8 h) 2.85 ± 0.53.
On to VIWDFLTRGIAKIISAHIHPVCSL [RBBP5], for which the protein stability index is 3.31 ± 0.46 (treatment: DMSO) and 3.3 ± 0.35 (treatment: MLN4924 1 uM, 8 h).
TENEEQTQLTQNAVSCPYLPSNLL [KCNA4]: the protein stability index is, setting by setting: (treatment: DMSO) 4.49 ± 0.27; (treatment: MLN4924 1 uM, 8 h) 4.63 ± 0.12.
Taken in the same sequence, the figures for SLFKLKPLSNKTATDDTGGKDPRN [PLD5] were 4.44 ± 0.54 and 4.65 ± 0.11.
Turning to RTPSAFPQTPAAPPATLGEGSADT [EHMT1], the protein stability index was determined as 5.3 ± 0.21 (treatment: DMSO) and 5.25 ± 0.12 (treatment: MLN4924 1 uM, 8 h).
Sequence DISMEIDSPENMMRHIRFLKNEVE [CCDC6] registered a protein stability index (treatment: DMSO) of 4.09 ± 0.39 and a protein stability index (treatment: MLN4924 1 uM, 8 h) of 3.86 ± 0.33.
